Where a chain is given by its changes, count along the chain named.
Tests used:
AAV5 [1] = target: T1, AAV5 (adeno-associated virus serotype 5 (AAV5)); test: 1 mL column of A4-008 coupled to agarose gel (9.77 mg/g gel); AAV capsid particles bound
T1 construct: also called adeno-associated virus serotype 5; AAV5 antigen

AAV6 [2] = target: T2, AAV6 (adeno-associated virus serotype 6 (AAV6)); test: as above
T2 construct: also called adeno-associated virus serotype 6

AAV8 [3] = target: T3, AAV8 (adeno-associated virus serotype 8 (AAV8)); test: as above
T3 construct: also called adeno-associated virus serotype 8; AAV8 antigen

AAV9 [4] = target: T4, AAV9 (adeno-associated virus serotype 9 (AAV9)); test: as above
T4 construct: also called adeno-associated virus serotype 9; AAV9 antigen

AAV5 [5] = target: T1, AAV5; test: 1 mL column of A4-008 coupled to agarose gel (10.74 mg/g gel); AAV capsid particles bound
AAV6 [6] = target: T2, AAV6; test: as above
AAV8 [7] = target: T3, AAV8; test: as above
AAV9 [8] = target: T4, AAV9; test: as above
AAV5 [9] = target: T1, AAV5; test: 1 mL column of A4-014 coupled to agarose gel (3.12 mg/g gel); AAV capsid particles bound
AAV6 [10] = target: T2, AAV6; test: as above
AAV8 [11] = target: T3, AAV8; test: as above
AAV9 [12] = target: T4, AAV9; test: as above
AAV2 = target: T5, AAV2 (adeno-associated virus serotype 2 (AAV2), UniProt P03135 1-735); test: 1 mL column of A4-024 coupled to agarose gel (6.36 mg/g gel); AAV capsid particles bound
T5 construct: also called adeno-associated virus serotype 2; AAV2 antigen

AAV5 [13] = target: T1, AAV5; test: as above
AAV6 [14] = target: T2, AAV6; test: as above
AAV8 [15] = target: T3, AAV8; test: as above
AAV9 [16] = target: T4, AAV9; test: as above

B1: A4-008 (VHH)
VHH: VQLQESGGGLVQAGGSLRLSCAASGRAFSINTMGWYRQAPPKQRELVATVTRGGSTNYAGSVKGRFTISRDNAKNTIYLQMNSLRPEDTAVYYCHVDEVRQSSWTTSNIWGQGTQVTVSS
binding capacity (AAV5 [1]): 8.56e+13 VP
binding capacity (AAV6 [2]): 8.78e+13 VP
binding capacity (AAV8 [3]): 9.47e+13 VP
binding capacity (AAV9 [4]): 8.83e+13 VP
binding capacity (AAV5 [5]): 8.95e+13 VP
binding capacity (AAV6 [6]): 9.43e+13 VP
binding capacity (AAV8 [7]): 1.16e+14 VP
binding capacity (AAV9 [8]): 9.17e+13 VP

B2: A4-014 (VHH)
VHH: B1 VHH with A13P, R26S, A27R, T32S, P41G, S55N, I77V, Q101E, I109L
binding capacity (AAV5 [9]): 3.22e+13 VP
binding capacity (AAV6 [10]): 2.59e+13 VP
binding capacity (AAV8 [11]): 3.83e+13 VP
binding capacity (AAV9 [12]): 4.3e+13 VP

B3: A4-024 (VHH)
VHH: B1 VHH with A13P, R26S, A27N, S29R, P41G, G60D, A73P, I77V, Q101E, I109L
binding capacity (AAV2): 7.65e+13 VP
binding capacity (AAV5 [13]): 4.8e+13 VP
binding capacity (AAV6 [14]): 6.09e+13 VP
binding capacity (AAV8 [15]): 5.17e+13 VP
binding capacity (AAV9 [16]): 6.5e+13 VP

Reference: patent US20260193326A1 (published 2026)
